T1: Myostatin (MSTN) (UniProt O14793 267-375)
T1 sequence (looked up): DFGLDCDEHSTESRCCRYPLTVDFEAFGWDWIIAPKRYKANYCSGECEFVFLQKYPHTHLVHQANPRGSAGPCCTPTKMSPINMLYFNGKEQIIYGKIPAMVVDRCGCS


Tests used:
[1] = target: Myostatin (MSTN) (UniProt O14793)
[2] = target: Myostatin (MSTN) (UniProt O14793); remark: listed apart in the source
[3] = target: Pro23-98 (MBP removed by factor Xa) (pig) (UniProt O18831); experiment: non-reducing SDS-PAGE; samples boiled in SDS loading buffer without beta-mercaptoethanol (unreduced) or with it (reduced); 15% gel, Coomassie blue; can show only disulfide-linked dimers
[4] = target: T1, Myostatin (MSTN); experiment: cell-based or functional assay
[5] = target: the molecule itself; experiment: non-reducing SDS-PAGE; samples boiled in SDS loading buffer without beta-mercaptoethanol (unreduced) or with it (reduced); 15% gel, Coomassie blue; can show only disulfide-linked dimers

Chain of Pro42-175 (MBP removed by factor Xa) (O18831 42-175): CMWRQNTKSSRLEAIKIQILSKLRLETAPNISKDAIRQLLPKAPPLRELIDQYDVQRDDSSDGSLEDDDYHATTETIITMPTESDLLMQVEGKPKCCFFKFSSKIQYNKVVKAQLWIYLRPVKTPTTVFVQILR
Chain of Pro23-98 (MBP removed by factor Xa) (O18831 23-98): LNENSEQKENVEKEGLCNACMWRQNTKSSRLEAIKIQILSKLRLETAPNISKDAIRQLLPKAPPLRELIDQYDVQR
Chain of MBP-fused truncated pig MSTNpro containing residues 42-218 (O18831 42-218): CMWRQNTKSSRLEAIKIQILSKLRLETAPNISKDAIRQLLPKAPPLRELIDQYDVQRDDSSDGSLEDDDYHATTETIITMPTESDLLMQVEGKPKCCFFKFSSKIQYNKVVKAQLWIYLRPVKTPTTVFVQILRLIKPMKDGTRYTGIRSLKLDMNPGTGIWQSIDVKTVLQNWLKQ

Molecule | IC50 to suppress 1 nM MSTN activity, pGL3-(CAGA)12-luciferase reporter assay in HEK293 cells [1] | further results
Pro42-175 (MBP removed by factor Xa) (from UniProt O18831 42-175) (domain or fragment) | – | IC50 to suppress 1 nM MSTN, (CAGA)12-luciferase reporter gene assay, after removal of MBP [2]: 44.9 nM
MBP-fused truncated pig MSTNpro containing residues 42-175 (from UniProt O18831 42-175) (domain or fragment) | 2.7 nM | –
Pro23-98 (MBP removed by factor Xa) (from UniProt O18831 23-98) (domain or fragment) | – | stoichiometry N [3]: 2
Full sequence MBP-fused pig MSTNpro (metalloproteinase-resistant mutant) (domain or fragment) | 2.8 nM | –
MBP-fused truncated pig MSTNpro containing residues 42-98 (domain or fragment, UniProt O18831 42-98, looked up) CMWRQNTKSSRLEAIKIQILSKLRLETAPNISKDAIRQLLPKAPPLRELIDQYDVQR | – | IC50 to suppress 1 nM MSTN activity, pGL3-(CAGA)12-luciferase reporter assay in HEK293 cells [4]: 24.1 nM
Pro42-98 (MBP removed by factor Xa) (domain or fragment, pig, UniProt O18831 42-98, looked up, Pig myostatin propeptide (MSTNpro), residues 42-98; Derived from m4; also called MBP-removed MSTNpro domain containing residues 42-98; source: E. coli K12TB1; MBP-Pro42-98 digested with factor Xa, soluble fraction of the digest / Superdex 75 fraction f16; not shown: MBP, N-terminal, cleaved) CMWRQNTKSSRLEAIKIQILSKLRLETAPNISKDAIRQLLPKAPPLRELIDQYDVQR | – | stoichiometry N [5]: 2

Further lines, with some results ahead:

IC50 to suppress 1 nM MSTN activity, pGL3-(CAGA)12-luciferase reporter assay in HEK293 cells [1] | Molecule | further results
3.3 nM | MBP-fused truncated pig MSTNpro containing residues 42-218 (from UniProt O18831 42-218) (domain or fragment) | –
17.7 nM | MBP-fused truncated pig MSTNpro containing residues 42-115 (from UniProt O18831 42-115) (domain or fragment) | –

From PMC5378391, “Maltose binding protein-fusion enhances the bioactivity of truncated forms of pig myostatin propeptide produced in E. coli” (PLoS ONE, 2017)
